In patent US20030022244A1 one finds Kd data, which are given here for one molecule.

As usually defined, the Kd is a measure of binding affinity in units of concentration. A low value points to tighter binding.

This test deals with mutant p53 protein. Description: method not stated.

B1: ME1 single-chain antibody (scFv ME1) (scFv)
scFv: QVKLQQSGAELAKPGASVKMSCKTSGYTFTSYWMNWVKQRPGQGLEWIGYINPTTGYTKYNQKFKDKATLTADKSSSTAYMQLSSLTNVDSAVYYCTTGYSYFDYWGQGTTVTVSSGGGGSGGGGSGGGGSDIELTQSPAIMSASPGEKVTITCSASSSVNYMHWFQQKPGTSPKLWISSTSNLASGVPARFSGSGSGTSYSLTISRMEAEDAATYYCQQRSSYPYTFGGGTKLQIKRAAAGAPVPYPDPLEPRAA
B1 came in with a Kd of 100 nM.
